Literature values as cited in PMC5650667.
Blank lines part the entries; values can stand above or below the substance they belong to.

What was measured:
RXFP2 (Homo sapiens) = RXFP2 (Homo sapiens) (UniProt Q8WXD0)
RXFP4 (Homo sapiens) = RXFP4 (Homo sapiens) (UniProt Q8TDU9)
[1] = target: TRH1 receptor (Homo sapiens) (UniProt P34981); assay: radioligand binding
Chain of UniProt P34981 (P34981 whole entry): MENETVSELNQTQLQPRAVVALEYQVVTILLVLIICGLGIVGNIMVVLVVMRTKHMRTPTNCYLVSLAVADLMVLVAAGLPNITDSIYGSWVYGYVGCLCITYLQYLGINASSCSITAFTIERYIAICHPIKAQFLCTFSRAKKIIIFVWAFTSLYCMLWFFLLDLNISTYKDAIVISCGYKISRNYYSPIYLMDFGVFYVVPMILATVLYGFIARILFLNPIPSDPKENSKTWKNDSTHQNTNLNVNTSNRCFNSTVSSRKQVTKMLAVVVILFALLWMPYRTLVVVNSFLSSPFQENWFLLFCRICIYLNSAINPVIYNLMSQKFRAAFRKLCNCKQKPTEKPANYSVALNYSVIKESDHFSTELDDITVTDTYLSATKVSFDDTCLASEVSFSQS

Chain of UniProt Q8TDU9 (Q8TDU9 whole entry): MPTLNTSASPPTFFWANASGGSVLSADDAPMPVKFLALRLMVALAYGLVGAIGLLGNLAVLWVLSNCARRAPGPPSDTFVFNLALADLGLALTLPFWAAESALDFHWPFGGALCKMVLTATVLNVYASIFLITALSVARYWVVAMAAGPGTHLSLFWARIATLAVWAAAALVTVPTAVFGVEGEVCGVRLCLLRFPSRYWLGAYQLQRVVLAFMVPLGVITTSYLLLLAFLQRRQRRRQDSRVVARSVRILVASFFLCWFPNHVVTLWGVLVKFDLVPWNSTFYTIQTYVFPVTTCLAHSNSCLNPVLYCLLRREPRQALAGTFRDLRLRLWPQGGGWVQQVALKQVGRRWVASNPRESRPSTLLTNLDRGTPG
Chain of UniProt Q8WXD0 (Q8WXD0 whole entry): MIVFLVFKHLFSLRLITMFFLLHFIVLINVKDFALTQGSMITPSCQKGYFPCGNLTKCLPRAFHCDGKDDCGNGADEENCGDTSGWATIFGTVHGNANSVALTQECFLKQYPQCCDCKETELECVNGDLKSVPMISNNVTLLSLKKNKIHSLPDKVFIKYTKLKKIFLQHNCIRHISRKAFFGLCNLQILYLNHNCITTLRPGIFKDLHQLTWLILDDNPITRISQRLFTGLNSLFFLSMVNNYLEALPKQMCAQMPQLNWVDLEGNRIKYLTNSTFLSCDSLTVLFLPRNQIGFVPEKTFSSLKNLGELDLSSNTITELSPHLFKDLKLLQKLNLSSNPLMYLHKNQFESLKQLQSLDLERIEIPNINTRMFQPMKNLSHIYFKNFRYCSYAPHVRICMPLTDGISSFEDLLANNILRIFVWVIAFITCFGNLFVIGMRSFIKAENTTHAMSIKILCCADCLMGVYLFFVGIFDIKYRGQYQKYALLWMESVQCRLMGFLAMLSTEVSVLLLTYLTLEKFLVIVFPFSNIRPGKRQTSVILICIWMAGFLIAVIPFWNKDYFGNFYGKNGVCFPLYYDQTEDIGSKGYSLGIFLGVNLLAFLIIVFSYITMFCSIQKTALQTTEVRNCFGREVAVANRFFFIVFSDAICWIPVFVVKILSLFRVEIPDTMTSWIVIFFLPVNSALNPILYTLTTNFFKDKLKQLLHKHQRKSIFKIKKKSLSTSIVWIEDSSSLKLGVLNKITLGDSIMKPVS

- Kd (RXFP2 (Homo sapiens)): 1 nM
Substance: INSL3 (from UniProt P51460)

- Kd (RXFP4 (Homo sapiens)): 5 nM
Substance: INSL5 (from UniProt Q9Y5Q6)

- Kd [1]: 13 nM
Substance: TRH (from UniProt P20396)
